Laboratory results reported in the supplement of paper PMC10724198.
± gives the standard deviation of the averaged measurements.

System: Saccharomyces cerevisiae
Test: protein stability index of tFT-peptide fusion (C-terminal peptide) (PSI (0-1 scale)); higher = more stable (slower turnover)
Conditions: genetic background: wild type; temperature: 30 C
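Also: PSI is a weighted mean of sequencing reads over stability bins, variants kept only with over 10 reads, mCherry proximal and sfGFP distal, peptide attached via GGGS linker.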

Sequence	protein stability index
WATPRPCQMVPS	0.567 ± 0.038
WAVLLQGSRDLW	0.788 ± 0.016
WCAGLATAIQLR	0.636 ± 0.053
WCECGVWVGLWG	0.732 ± 0.059
WCGLRVGGGGMW	0.74 ± 0.017
WCGNGFVKKGGL	0.655 ± 0.007
WCKLLGGSVFGE	0.671 ± 0.023
WCLRVRASGRGG	0.786 ± 0.3
WCRGGGWPVTGL	0.7 ± 0.042
WCVCGVWVGLWG	0.71 ± 0.076
WCVLLMALFRWW	0.625 ± 0.025
WDLPKTLCSKYT	0.727 ± 0.013
WDQLPVNMVYQC	0.571
WDSLGGCRARLS	0.7 ± 0.013
WFCRFTGGRRLL	0.671 ± 0.044
WFDCGSACFGYL	0.782 ± 0.056
WFGPPAPRKVSP	0.852 ± 0.042
WFGSPRCVGGQL	0.703 ± 0.03
WFQRGKIPIHKV	0.667 ± 0.074
WFRMTFLSPLHD	0.797 ± 0.044
WGGGGGKEAVVR	0.6554 ± 0.0042
WGGGGGRGGMGG	0.693 ± 0.055
WGGGGGVWGHVV	0.603 ± 0.034
WGGSGRVWVKLG	0.696 ± 0.055
WGGSSPHRTEPR	0.666 ± 0.058

Sequence	protein stability index
WGGWGLRVSCGT	0.681 ± 0.052
WGLGFRLVFWSV	0.5289 ± 0.0022
WGPCCSTLLFFV	0.423 ± 0.12
WGRFGYGPAVVG	0.735 ± 0.063
WGRRGGVARGRA	0.787 ± 0.1
WGRRVSPVRDGR	0.671 ± 0.032
WGSISVEGRVAG	0.715 ± 0.015
WGTGGRLGVGHV	0.697 ± 0.056
WGVGGVLEVLLG	0.522 ± 0.022
WGVGRDVVLWGA	0.895 ± 0.14
WGVSARDPVFKE	0.654 ± 0.018
WGVSGAGPHLLL	0.74 ± 0.038
WGWGGGRGGMGG	0.716 ± 0.022
WGWPHQRDGFLG	0.66 ± 0.007
WHWDGVGTLVIW	0.605 ± 0.14
WLCLARGRLGLH	0.583 ± 0.011
WLESHVSRGLTT	0.64 ± 0.021
WLGRGGACGVRW	0.696 ± 0.05
WLGTIVCGRGWW	0.7003 ± 0.006
WLLGLCLFGFHR	0.577 ± 0.013
WLLKGTVTLMMW	0.5687 ± 0.0031
WLPPPPYSPFSL	0.724 ± 0.059
WLREDCLLSRGR	0.7 ± 0.0016
WLRSLLKENLVR	0.5422 ± 0.0016
WLRVLFPSSPGD	0.607 ± 0.04

Sequence	protein stability index
WLSAGAWGAVIL	0.788 ± 0.034
WPLISPFSKHRW	0.696 ± 0.055
WPLVLSYRKESA	0.803 ± 0.22
WQGARLSSREGH	0.694 ± 0.038
WQLKGNGGREAL	0.671 ± 0.034
WQNKKDNGKIRG	0.724 ± 0.11
WRCYCFLGLDEG	0.653 ± 0.029
WRPLIPPSLPPL	0.6977 ± 0.0069
WRQRVWRGGWKG	0.594 ± 0.031
WSGGWAGGMLNE	0.641 ± 0.027
WSIGGKSFVGIA	0.676 ± 0.031
WSISKSTWGPIG	0.673 ± 0.023
WSQGAIDRLDLS	0.641 ± 0.13
WSRRGGWEKYGV	0.676 ± 0.032
WSSSVGIKGAWF	0.707 ± 0.022
WSVGRVGGCGAR	0.704 ± 0.052
WTCMNRRMREED	0.739 ± 0.072
WTNRVPLYALPT	0.657 ± 0.0081
WVGAGGGSGYGR	0.677 ± 0.018
WVGKCLCRGLCD	0.668 ± 0.0096
WVMREIVFGSLY	0.698 ± 0.017
WVNWRWRAVVPG	0.6188 ± 0.0025
WVSSRSSVVARG	0.653 ± 0.043
WVTQHAMEVGRI	0.712 ± 0.084
WVVGGVRGVWGA	0.729 ± 0.011

Sequence	protein stability index
WWAERCLGGGRG	0.744 ± 0.018
WWAGGCGGERGG	0.686 ± 0.018
WWGAKLDGKVSE	0.813 ± 0.0089
WWGCVGRVGVEG	0.726 ± 0.1
WWGGGVRGGMGG	0.7578 ± 0.002
WWGRWGASVGRG	0.686 ± 0.033
WWRGSVWHREVA	0.701 ± 0.0088
WYGPKLVGGSIV	0.722 ± 0.12
WYITVMSHFNET	0.753 ± 0.009
WYWGGWMRGCGW	0.75 ± 0.048
YAGPCRRHSGGC	0.679 ± 0.082
YALLLPRSVFQF	0.517 ± 0.038
YASDGNSRLRAN	0.691 ± 0.02
YASKQNPKPPSP	0.682 ± 0.039
YASLSGSRYRPG	0.62 ± 0.051
YCGGWCGGWEIG	0.709 ± 0.0075
YCGGWWGGWEIG	0.719 ± 0.0036
YCHTSISPNSHL	0.787 ± 0.096
YCLLGHIYKPLS	0.679 ± 0.011
YCRVRYKKSVLR	0.694 ± 0.015
YCTVDECWGRWH	0.709 ± 0.08
YCWGYVVARPSV	0.695 ± 0.017
YEMTGHVVTHEI	0.69 ± 0.075
YFGSHLILSRAT	0.665 ± 0.11
YFNNVFQVAGGF	0.639 ± 0.025

Sequence	protein stability index
YGAGLRIGQFRC	0.747 ± 0.1
YGCPSSSSVLDG	0.812 ± 0.11
YGGRQRCRGRVE	0.825 ± 0.16
YGKENGNRNTGR	0.621 ± 0.014
YGRANATHLGRR	0.661 ± 0.005
YHARPQALPSRP	0.658 ± 0.055
YHMNSSLLCLLW	0.631 ± 0.032
YIGGMRSHYASP	0.734 ± 0.12
YIRSKPASDQFA	0.7093 ± 0.00062
YIVPAGGGLVSG	0.642 ± 0.096
YKMTFVRGQGYE	0.69 ± 0.041
YKNDNDKCIQMR	0.678 ± 0.011
YKPLKNKDEEMD	0.6127 ± 0.00088
YLAYHVAAPGPV	0.686 ± 0.015
YLCEATFLLTWL	0.618 ± 0.024
YLGCSLAMAFSL	0.6278 ± 0.0054
YLLLAFQRPTPG	0.694 ± 0.019
YLLPSTPPPRIP	0.6912 ± 0.0048
YLQLALFHSIPH	0.738 ± 0.053
YLSLPTSISLSS	0.693 ± 0.016
YPLPFRHASIPF	0.606 ± 0.096
YPLPPLFLPLLL	0.675 ± 0.046
YPPLTNNQINES	0.69 ± 0.015
YPPPPPLAPPRP	0.747 ± 0.14
YPPREEPREDLA	0.656 ± 0.026

Sequence	protein stability index
YPSTPPPPPHPA	0.687 ± 0.1
YPTTSWNPARSV	0.692 ± 0.12
YQSLVSIDLGFS	0.745 ± 0.034
YRLAPGCSFHPT	0.666 ± 0.028
YRPPSPPSPLPP	0.674 ± 0.007
YSCLGFELWGKG	0.632 ± 0.067
YSLQLSTVCCRL	0.614 ± 0.019
YSLSDVAVLAST	0.629 ± 0.045
YSLTFSIHSSCP	0.697 ± 0.033
YSLYVHPPNLYQ	0.6604 ± 0.0015
YSRSSFSIPPPF	0.7239 ± 0.003
YSSLPPAFPNRS	0.734 ± 0.1
YSVPDFIVVSHL	0.797 ± 0.12
YSWRAKGVKRLR	0.659 ± 0.029
YTDVWLPARGSG	0.689 ± 0.056
YTKIIPIFPEQL	0.631 ± 0.03
YVCCMEGFLKPL	0.619 ± 0.043
YVFPYLLRAIPF	0.601 ± 0.095
YVLITGSTIPDN	0.694 ± 0.026
YVVCMNKSSFRG	0.769 ± 0.042
YWVPPDTIKSAI	0.7362 ± 0.0032
